T1: G3BP2 NTF2 domain (human, UniProt Q9UN86 11-133)
T1 sequence (looked up): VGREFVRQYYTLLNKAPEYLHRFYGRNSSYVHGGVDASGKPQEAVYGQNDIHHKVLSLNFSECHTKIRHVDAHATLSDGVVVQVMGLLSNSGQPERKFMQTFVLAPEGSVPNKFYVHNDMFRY


How the values were obtained:
Conditions in all cases: both partners purified
[1] = biological target: Ezrin FERM domain (human, UniProt P15311 2-296)
[2] = biological target: T2, Radixin FERM domain (human, UniProt P35241 5-295)
T2 construct: also called RDX

[3] = biological target: T1, G3BP2 NTF2 domain

Chain of Ezrin FERM domain (P15311 2-296): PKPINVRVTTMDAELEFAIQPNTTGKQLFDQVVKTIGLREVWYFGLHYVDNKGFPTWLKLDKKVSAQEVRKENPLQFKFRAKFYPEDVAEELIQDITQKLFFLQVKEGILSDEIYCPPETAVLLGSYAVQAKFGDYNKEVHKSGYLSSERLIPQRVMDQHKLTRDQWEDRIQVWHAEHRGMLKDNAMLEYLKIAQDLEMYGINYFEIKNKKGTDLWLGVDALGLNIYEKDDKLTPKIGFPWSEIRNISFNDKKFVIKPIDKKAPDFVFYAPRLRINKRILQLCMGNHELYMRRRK
T2 sequence (P35241 5-295): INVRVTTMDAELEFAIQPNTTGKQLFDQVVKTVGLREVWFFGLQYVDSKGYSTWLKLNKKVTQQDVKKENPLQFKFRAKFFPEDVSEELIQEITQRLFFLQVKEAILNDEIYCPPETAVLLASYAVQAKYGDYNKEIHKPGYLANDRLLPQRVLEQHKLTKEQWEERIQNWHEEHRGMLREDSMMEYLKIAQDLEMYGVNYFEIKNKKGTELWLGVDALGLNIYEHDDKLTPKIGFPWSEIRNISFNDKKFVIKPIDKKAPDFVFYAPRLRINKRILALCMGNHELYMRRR

Binder	IC50 [1] [µM]	Ki [1] [µM]	IC50 [2] [µM]	IC50 [3] [µM]	Ki [3] [µM]
VETSNSFDVLKSEDAQY [NSP3 peptide 2019-2034 (Sars-CoV2)]	1530	37.6	1530	–	–
QGKPLEFGATSAALQY [NSP3 peptide 956-971 (Sars-CoV2)]	–	–	–	100	35

— paper PMC8605023 (Nature Communications, 2021)
